Test results as given in publication PMC5353646, “Allosteric modulation of peroxisomal membrane protein recognition by farnesylation of the peroxisomal import receptor PEX19” (Nature Communications, 2017).
“Also recorded” adds a separate entry of the source.

Experiments:
[1] = tested on: PEX19-deficient human fibroblasts (ΔPEX19 T); assay: Functional complementation of PEX19-deficient fibroblasts (peroxisomal protein import); type: cell-based; conditions: full-length PEX19 variants, 72 h after transfection; for cells showing restored peroxisomal protein transport (functional complementation): at least 100 cells in three independent transfections, series of Fig. 3c
Text: A bicistronic expression plasmid coding for eGFP-PTS1 and non-tagged PEX14 (pMF1220)[43] was kindly provided by Marc Fransen (Leuven, Belgium). pIRES2-HsPEX19-eGFP-PTS1 was constructed by replacing the open reading frame of PEX14 (BglII/SalI) with a DNA-cassette encoding the full-length open reading frame of human PEX19 as derived from BamHI/SalI digestion of pAH05 (ref. [44]). Single point mutations were introduced into the PEX19 sequence by Quickchange XL Site-directed Mutagenesis kit (Stratagene) using primer pairs (Supplementary Table 1). The bicistronic expression vectors coding for PEX19 variants and eGFP-PTS1 were transfected into the human cell-line ΔPEX19 T which was derived from PEX19-deficient Zellweger patient fibroblasts. ΔPEX19 T cells, characterized by a defect in peroxisome biogenesis were routinely authenticated by functional complementation assays as described below and checked for mycoplasma contamination using Venor GeM Advance Mycoplasm Detection Kit (Minerva Biolabs). The efficiency of transfection according to the Amaxa Cell Line Nucleofector Kit R protocol (Lonza Cologne AG) was always around 90%. After 72 h of transfection, cells were subjected to fluorescence and immunofluorescence microscopy using polyclonal antiserum against human PEX14 (ref. [45]) (1:400 diluted) or monoclonal antibodies against human PEX19 (BD Biosciences, MA5-17266 Thermo Scientific; 1:400 diluted). Statistical analysis was carried out from three independent transfections of each pIRES-PEX19-eGFP-PTS1 expression plasmid. Based on the appearance of eGFP-PTS1 fluorescence pattern, about 100 cells of each experiment were visually categorized into three classes, (i) full complementation of peroxisomal import as visualized by punctuate staining pattern, (ii) partial complementation as indicated by diffuse cytosolic staining with few dots, (iii) no complementation resulting in only cytosolic staining. All micrographs were recorded on a Zeiss Axioplan 2 microscope with a Zeiss Plan-Apochromat × 63/1.4 oil objective and an Axiocam MR digital camera, and were processed with AxioVision 4.6 software (Zeiss, Jena, Germany). The steady-state level of PEX19 expression was assessed by immunoblot analysis, using monoclonal mouse antibodies against HsPEX19 (BD Biosciences, MA5-17266; 1:1,000 diluted) (Supplementary Fig. 9).

[2] = Hydrophobic interaction chromatography; type: physicochemical
Method: Purified PEX19 CTD and variants were adjusted to a buffer containing 650 mM (NH4)2SO4 and 500 μg protein was subjected to equilibrated Butyl Sepharose FF column (20 mM potassium phosphate, pH 6.5, 50 mM NaCl and 650 mM (NH4)2SO4). After washing, bound protein was eluted with linear decreasing (NH4)2SO4 concentrations (650–0 mM (NH4)2SO4, 20 ml). Eluted proteins were detected using 280 nm absorption. The binding strength is indicated by the elution volume and correlates with protein hydrophobicity.

[3] = Stability of purified protein in solution; type: physicochemical
[4] = tested on: PEX19-deficient human fibroblasts; assay: Immunoblot analysis of PEX19 variants in transfected fibroblasts; type: cell-based
Text: A bicistronic expression plasmid coding for eGFP-PTS1 and non-tagged PEX14 (pMF1220)[43] was kindly provided by Marc Fransen (Leuven, Belgium). pIRES2-HsPEX19-eGFP-PTS1 was constructed by replacing the open reading frame of PEX14 (BglII/SalI) with a DNA-cassette encoding the full-length open reading frame of human PEX19 as derived from BamHI/SalI digestion of pAH05 (ref. [44]). Single point mutations were introduced into the PEX19 sequence by Quickchange XL Site-directed Mutagenesis kit (Stratagene) using primer pairs (Supplementary Table 1). […] After 72 h of transfection, cells were subjected to fluorescence and immunofluorescence microscopy using polyclonal antiserum against human PEX14 (ref. [45]) (1:400 diluted) or monoclonal antibodies against human PEX19 (BD Biosciences, MA5-17266 Thermo Scientific; 1:400 diluted). […] Based on the appearance of eGFP-PTS1 fluorescence pattern, about 100 cells of each experiment were visually categorized into three classes, (i) full complementation of peroxisomal import as visualized by punctuate staining pattern, (ii) partial complementation as indicated by diffuse cytosolic staining with few dots, (iii) no complementation resulting in only cytosolic staining. […]

B1: M255R: PEX19 CTD variant M255R (helix α4) (protein)
chain: GMDEGDGEGNILPIMQSIMQNLLSKDVLYPSLKEITEKYPEWLQSHRESLPPEQFEKYQEQHSVMCKICEQFEAETPTDSETTQKARFEMVLDLRQQLQDLGHPPKELAGEMPPGLNFDLDALNLSGPPGASGEQCLIM
modifications: left off: His6, end not stated, cleaved
functional complementation (in words) [1]: not capable of rescuing the ΔPEX19 phenotype; also recorded: completely abolishes PEX19 function | elution volume after start of the gradient ([2]; Butyl Sepharose FF, linear decreasing (NH4)2SO4 650–0 mM, 20 ml, 20 mM potassium phosphate, pH 6.5, 50 mM NaCl, 280 nm, 500 μg protein): 5.00 mL | hydrophobic interaction chromatography, effect on hydrophobicity (in words) ([2]; farnesylated vs non-farnesylated, compared to wild type): most pronounced effects | stability in solution after purification [3]: not stable for long time in solution

B2: PEX19 C296S: full-length PEX19 variant which lacks the farnesylation site (protein, UniProt P40855 1-299, looked up, variant C296S)
chain: MAAAEEGCSVGAEADRELEELLESALDDFDKAKPSPAPPSTTTAPDASGPQKRSPGDTAKDALFASQEKFFQELFDSELASQATAEFEKAMKELAEEEPHLVEQFQKLSEAAGRVGSDMTSQQEFTSCLKETLSGLAKNATDLQNSSMSEEELTKAMEGLGMDEGDGEGNILPIMQSIMQNLLSKDVLYPSLKEITEKYPEWLQSHRESLPPEQFEKYQEQHSVMCKICEQFEAETPTDSETTQKARFEMVLDLMQQLQDLGHPPKELAGEMPPGLNFDLDALNLSGPPGASGEQSLIM
modifications: full-length
functional complementation (in words) [1]: cannot fully restore PEX19 function | cells showing restored peroxisomal protein transport (functional complementation) [1]: 46% | cells showing restored peroxisomal protein transport (functional complementation) ([1]; listed as C296S): 50% | expression and farnesylation in vivo [4]: lacks the farnesylation site
